In publication PMC4634852:

Target: Spindle-F (Spn-F) (UniProt Q9V9Y9)
Test: anti-FLAG co-IP of differently tagged Spn-F
Conditions: reference: wild-type Spn-F with Ik2; sites S53,S85,S172,S202,S264,S270,S325,S349

Substance: Spindle-F (Spn-F) (from UniProt Q9V9Y9) SpnF-8A with Ik2
- binding against the reference: stronger
